Data on one molecule can be found in article doi:10.1101/2022.04.11.487660 (bioRxiv, 2022).

The assay has as its target lysozyme (UniProt P00698). In words: ELISA. For orientation: In an ELISA, binding on a coated surface is turned into a signal by an enzyme label.

B1: camel nanobody 1ZVH, displayed on phage (VHH)
VHH: DVQLVESGGGSVQAGGSLRLSCAASGYIASINYLGWFRQAPGKEREGVAAVSPAGGTPYYADSVKGRFTVSLDNAENTVYLQMNSLKPEDTALYYCAAARQGWYIPLNSYGYNYWGQGTQVTVSS
As for B1, the binding result is “binds”.
